Data set [1] relates to MDA-MB-231 cells. To be noted: mouse, in vivo.
Description: The dosing regimen was initiated when the mean tumor volume of all study animals reached 50-100 mm^3.
Treatment Regimen. Twenty (20) NSG mice (Jackson Laboratory, female, 5-6 wks old) were used in this study. The animals were assigned to two study groups of 10 mice randomly. The MDA-MB-231 cell line was prepared for injection as described in the Materials and Methods.
1.25×10^6 cancer cells in PBS with 20% matrigel were injected orthotopically into the mammary fat pad. The day on which the tumor was implanted is designated as Day 0.
The target in data set [2] is T1, Human NRP2 (aa23-855) (Homo sapiens, UniProt O60462).
T1 construct: Human NRP2 (aa23-855)
T1 sequence (O60462 23-855 isoform O60462-3): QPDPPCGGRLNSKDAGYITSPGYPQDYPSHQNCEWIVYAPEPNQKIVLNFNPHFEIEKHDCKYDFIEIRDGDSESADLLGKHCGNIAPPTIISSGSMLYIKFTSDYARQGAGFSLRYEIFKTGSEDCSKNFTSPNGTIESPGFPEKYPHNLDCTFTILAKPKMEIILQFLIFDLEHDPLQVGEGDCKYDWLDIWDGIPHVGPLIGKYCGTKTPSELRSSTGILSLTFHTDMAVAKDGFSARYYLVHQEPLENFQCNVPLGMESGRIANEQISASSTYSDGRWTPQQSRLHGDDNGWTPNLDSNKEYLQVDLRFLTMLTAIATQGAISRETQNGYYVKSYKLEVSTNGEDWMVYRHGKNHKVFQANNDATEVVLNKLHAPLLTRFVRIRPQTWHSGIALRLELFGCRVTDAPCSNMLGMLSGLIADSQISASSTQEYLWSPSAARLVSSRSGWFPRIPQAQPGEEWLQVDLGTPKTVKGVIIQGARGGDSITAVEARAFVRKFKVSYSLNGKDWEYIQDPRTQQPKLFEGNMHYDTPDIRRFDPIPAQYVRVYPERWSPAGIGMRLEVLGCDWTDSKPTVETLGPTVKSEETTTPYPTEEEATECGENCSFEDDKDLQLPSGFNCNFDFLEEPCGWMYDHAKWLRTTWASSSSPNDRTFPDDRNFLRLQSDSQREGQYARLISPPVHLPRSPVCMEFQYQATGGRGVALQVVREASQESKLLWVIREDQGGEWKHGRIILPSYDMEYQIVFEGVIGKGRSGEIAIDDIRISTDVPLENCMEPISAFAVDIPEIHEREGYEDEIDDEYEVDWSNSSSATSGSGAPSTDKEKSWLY
Briefly: SPR binding affinity of anti-NRP2 antibodies to human NRP2 antigen. To be noted: KD = kd/ka, Langmuir (1:1) model. How it is done:
Anti-NRP2 antibody binding and affinity measurements. […] SPR experiments were conducted on a Bio-Rad ProteOn XPR36 Protein Interaction Array instrument. Biotinylated anti-human antibody (ThermoFisher Cat #7103302100) was immobilized on ProteOn NLC sensor chips. Anti-NRP2 antibodies were subsequently flowed over and captured by the anti-human antibody. Human NRP2 antigen protein was flowed over the captured antibody at varying concentrations (150, 50, 16.67, 5.56, 1.85 nM). The sensor chip surface was regenerated between each analyte run to remove anti-NRP2 antibodies and NRP2 protein. Data was double referenced against a surface with no anti-NRP2 antibody captured (immobilized anti-human antibody only) and a buffer only blank. Affinity constants were derived by globally fitting sensograms to a Langmuir (1:1) interaction model in the ProteOn manager software. For each anti-NRP2 antibody, data from the multiple NRP2 concentrations was fit as a single data set with dissociation rate constant (kd), association rate constant (ka) and Rmax values as global parameters. The reported binding affinity is the equilibrium dissociation constant (KD) calculated from kd/ka. • Running buffer: 50 mM HEPES, 300 mM NaCl, 5 mM CaCl2), 0.005% Tween-20, pH 7.4 • Immobilized antibody: CaptureSelect Human Fab-kappa Kinetics Biotin Conjugate, ThermoFisher Cat #7103302100 • Antigen: Human NRP2 (aa23-855) with C-terminal Avi-, Myc- and His-tags • Regeneration buffer: 10 mM glycine pH 2.0
For orientation: Surface plasmon resonance follows binding to a sensor surface in real time, without labels.

Data set [3] deals with B16-F10 tumors. The data set is described as follows: B16-F10 mouse melanoma in C57BL/6 mice. The format is in vivo. How it is done: Animals and Animal husbandry. All mice were ear tagged for identification purpose. Upon arrival, animals were examined to ensure that they were healthy. The animals were housed in autoclaved solid floor polycarbonate cages. Housing and sanitation were performed according to industry standards. All animal handling was performed in a laminar flow hood located in a clean room. In all experiments, euthanasia criteria were set for an upper limit on subcutaneous tumor volume (usually >2,000 mm^3) and body weight loss (usually >20% body weight loss for an individual during the study). Animal work was performed at either Comparative Biosciences, Inc., 786 Lucerne Dr., Sunnyvale, CA 94085 or at aTyr Pharma, 3545 John Hopkins Court, Suite 250, San Diego, CA 92121. The test antibody dosing regimen was initiated once the mean tumor volume reached 50-100 mm^3. Tumor measurements were recorded two times a week until study termination, as described below.
Tumor monitoring. Once palpable, sub-cutaneous tumors were measured three times a week with a digital caliper. Tumor volumes were calculated using formula: Tumor Volume=length×width×width×1/2
Statistical analysis. Data are expressed as mean±SEM o. In experiments in which animals were euthanized due to tumor burden or body weight loss, the terminal tumor volume was carried forward for statistical analysis. […] Significance of difference over time was tested with a 2-way repeated measures ANOVA followed by Dunnett's post-hoc test. Group comparisons were conducted using 1-way ANOVA (parametric or Kruskal Wallis, as noted in the figure legends). A p value <0.05 was considered significant.
Cell culture and implantation. Mouse B16-F10 cell line was purchased from ATCC.
Treatment Regimen. Thirty (30) C57BL/6 mice (Charles River, female, 6-8 wks old) were used in this study. The animals were assigned to 3 study groups of 10 mice randomly, and housed as described in the Materials and Methods. The antibody dosing regimen is shown in Table E4 below; in brief animals received intraperitoneal injections of the control IgG antibody, positive control antibody (Bevacizumab), and anti-NRP2 antibody (as described in the Materials and Methods), administered according to the protocol below (Table E4).

The subject of data set [4] is 4T1 tumors. The data set is described as follows: 4T1 model of spontaneous metastasis in Balb/c mice. Format: in vivo. How it is done:
The test antibody dosing regimen was initiated one day before cell injection and animal weights and tumor measurements were recorded three times a week until study termination.
Mouse 4T1 cell line was purchased from ATCC. […] 50,000 cancer cells in PBS were implanted subcutaneously into the right flank of each mouse.
Treatment Regimen. […] The animals were assigned to 3 study groups of 10 mice randomly, and housed as described in the Materials and Methods. The antibody dosing regimen is shown in Table E5 below; in brief animals received intraperitoneal injections of 10 mg/kg of the control IgG antibody, and aNRP2-28 (as described in the Materials and Methods), administered according to the protocol below (Table E5); starting one day before cancer cell implantation until termination on day 23).

In data set [5] the test system is neo-lymphangiogenesis of the cornea. Briefly: Corneal alkali-burn injury model of neovascularization (LYVE-1 staining). The format is in vivo, mouse. To be noted: IP on Day 0, 3, 7 and 10; Day 14; compared to IgG control; p=0.07. How it is done:
Study Design & Treatment Regimen. The study consisted of 40 female C57BL/6 mice separated into four groups. Prior to study, animals were randomized into four groups, 10 mice per group. On Day 0, neovascularization (NV) of the cornea was induced from alkali-burn injury in the eyes of animals under anesthesia. Animals were treated intraperitoneally with control IgG (Group 1), aNRP2-28 (Group 2) and Bevacizumab (Group 3) on post-injury Day 0, 3, 7 and 10. During the in-life phase, animals were monitored with daily clinical observations and weekly body weights. Additionally, ocular assessments of injured eyes were scored and photos taken on post-injury Day 7 and Day 14. All animals were euthanized on Day 14. Injured eyes from all animals were removed and dissected. Whole-mounted corneas were fixed, stained with LYVE-1, and analyzed immunohistochemically to examine the efficacy of Test Articles.

Entries after “also recorded” stand apart in the source; their conditions may differ.

By Kd is commonly meant the concentration at which binding is half-saturated. High values mean weaker binding, low ones tighter binding.

Turning to `N.N.[Cl][Pt][Cl]` [cisplatin, Cisplatin], the body weight result in data set [1] was “significant loss in body weight”.

B1: aNRP2-28v2/4: mouse surrogate VEGF blocking antibody recognizing mouse NRP2, functional surrogate for aNRP2-10v10; CDRs SEQ ID NOs: 63-68 (antibody, V domains shown)
VH: QSVKESEGGLFKPTDTLTLTCTVSGFSLSTYSISWVRQAPGNGLEWIGIIGDAGGIIYATWAKSRSTITRSTALNTVTLKMTGLTAADTATYFCARDGTAFDIWGPGTLVTVSS
VL: AYDMTQTPASVEVVVGGTVTIKCQASQSIYSKLGWYQQKPGQPPKLLIYRASTLASGVSSRFKGSGSGTEYTLTISGVQCDDAATYYCQQDYSYINVDNIFGGGTEVVVK
As to B1, the affinity in data set [2], expressed as Kd, was 0.0599 nM. In data set [3] (25 mg/kg IP BIW), the terminal tumor weights result was “lowest terminal tumor weights”; the “toxicity from animal body weight measurements and observations” value is listed as “no evidence of toxicity”. Further, the “tumor growth (tumor volume)” value in data set [3] (25 mg/kg IP BIW, compared to IgG control group, p<0.05 on Day 14, 16 and 19) is “tumor growth inhibition”. Further, in data set [3] (aNRP2-28 25 mg/kg vs Bevacizumab 5 mg/kg, IP BIW), the “anti-tumor activity relative to Bevacizumab (positive control)” value is reported as “more potent anti-tumor activity”. Further, the “toxicity from animal body weight measurements and observations” value in data set [4] (10 mg/kg IP) is on record as “no evidence of toxicity”. In addition, the “metastatic nodules in the lung at termination” value in data set [4] (10 mg/kg IP days -1 to 23, compared to IgG control, p≤0.05) is “reduction in metastatic nodules in the lung”. In addition, the “neo-lymphangiogenesis, % Lyve-1+ area of cornea” value in data set [5] was “inhibits neo-lymphangiogenesis; also recorded: can inhibit neolymphangiogenesis”.

Values taken from patent publication US12410253B2, “Compositions comprising anti-NRP2 antibodies” (aTyr Pharma, Inc., priority 2019, dated 2025).
